{
  "source": "patent US20220041709A1",
  "about": "(MITSUBISHI TANABE PHARMA, published 2022)",
  "binders": {"B1": {"name": "human anti-IL-33 monoclonal antibody A10-1C04 (antibody, human IgG1, lambda, V domains shown)", "VH": "EVQLLESGGGLVQPGGSLRLSCAASGFTFSDYYMNWVRQAPGKGLEWVSSISRYSSYIYYADSVKGRFTISRDNSKNTLYLQMNSLRAEDTAVYYCARDIGGMDVWGQGTLVTVSS", "VL": "QSVLTQPPSASGTPGQRVTISCTGSSSNIGAVYDVHWYQQLPGTAPKLLIYRNNQRPSGVPDRFSGSKSGTSASLAISGLRSEDEADYYCQTYDSSRWVFGGGTKLTVLG", "notes": "Detected with anti-human IgG antibody in the ELISA"}},
  "key": {"[1]": {"molecular_target": "T1, Human IL-33 (human, UniProt O95760 112-270, limits assumed)", "T1 construct": "also called NF-HEV", "T1 sequence (looked up)": "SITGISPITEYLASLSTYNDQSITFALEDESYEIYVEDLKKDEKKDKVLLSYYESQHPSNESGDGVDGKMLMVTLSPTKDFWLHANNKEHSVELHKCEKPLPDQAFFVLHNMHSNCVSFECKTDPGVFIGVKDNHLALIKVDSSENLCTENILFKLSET", "assay": "ELISA on plate-coated human IL-33, HRP anti-human IgG detection; 10 mg/mL formulation, 2 to 8 C, T0", "experimental": "(§1) Compositions of 10 mg/mL of each human anti-IL-33 monoclonal antibody (A10-1C04, A23-1A05, A25-2C02, A25-3H04 or A26-1F02) were prepared with 10 mM histidine/pH 6/0.02% (w/v) polysorbate 80/3.6% (w/v) sorbitol, and then each filled into a glass vial and sealed with a halogenated butyl rubber stopper, and stored for 1, 2 and 3 years at a temperature of 2 to 8° C. as a long-term stability test. The presence or absence of aggregation was confirmed by visual examination for 5 seconds each under a 2000 to 3750 Lux fluorescent lamp, against white and black board backgrounds. The binding activity was evaluated by the following method. Human IL-33 was added to a 96-well plate and allowed to form a solid phase overnight. BSA was used for blocking, and then the sample solution was added to each well, reacted with HRP-labeled anti-human IgG antibody and colored with TMB. The absorbance at 450 nm and 650 nm was then measured with a plate reader (Molecular Devices Corp.) to determine the EC50 value. The EC50 value of the standard solution was also determined in the same manner, and the ratio was calculated."}, "[2]": {"molecular_target": "T1, Human IL-33", "assay": "ELISA on plate-coated human IL-33, HRP anti-human IgG detection; 150 mg/mL formulation, 2 to 8 C, T0", "experimental": "The presence or absence of aggregation was confirmed by visual examination for 5 seconds each under a 2000 to 3750 Lux fluorescent lamp, against white and black board backgrounds. The binding activity was evaluated by the following method. Human IL-33 was added to a 96-well plate and allowed to form a solid phase overnight. BSA was used for blocking, and then the sample solution was added to each well, reacted with HRP-labeled anti-human IgG antibody and colored with TMB. The absorbance at 450 nm and 650 nm was then measured with a plate reader (Molecular Devices Corp.) to determine the EC50 value. The EC50 value of the standard solution was also determined in the same manner, and the ratio was calculated.\nCompositions of 150 mg/mL of each human anti-IL-33 monoclonal antibody (A10-1C04, A23-1A05, A25-2C02, A25-3H04 or A26-1F02) were prepared with 10 mM histidine/pH 6/0.02% (w/v) polysorbate 80/4.0% (w/v) sorbitol, and then each was filled into a glass vial and sealed with a halogenated butyl rubber stopper, and stored for 3 and 6 months at a temperature of 2 to 8° C. as a long-term stability test. The evaluation was conducted by the same method as Example 14."}, "[3]": {"molecular_target": "T1, Human IL-33", "assay": "ELISA on plate-coated human IL-33, HRP anti-human IgG detection; 10 mg/mL formulation stored 1 year at 2 to 8 C", "experimental": "as §1"}, "[4]": {"molecular_target": "T1, Human IL-33", "assay": "ELISA on plate-coated human IL-33, HRP anti-human IgG detection; 10 mg/mL formulation stored 2 years at 2 to 8 C", "experimental": "as §1"}, "[5]": {"molecular_target": "T1, Human IL-33", "assay": "ELISA on plate-coated human IL-33, HRP anti-human IgG detection; 10 mg/mL formulation stored 3 years at 2 to 8 C", "experimental": "as §1"}, "[6]": {"molecular_target": "T1, Human IL-33", "assay": "ELISA on plate-coated human IL-33, HRP anti-human IgG detection; 150 mg/mL formulation stored 3 months at 2 to 8 C", "experimental": "as §1, with “monoclonal” for “Compositions of 10 mg/mL of each human anti-IL-33 monoclonal”, “and stored for 1, 2 and 3 years at a temperature of 2 to” left out\n(§2) Compositions of 150 mg/mL of each human anti-IL-33 monoclonal antibody (A10-1C04, A23-1A05, A25-2C02, A25-3H04 or A26-1F02) were prepared with 10 mM histidine/pH 6/0.02% (w/v) polysorbate 80/4.0% (w/v) sorbitol, and then each was filled into a glass vial and sealed with a halogenated butyl rubber stopper, and stored for 3 and 6 months at a temperature of 2 to 8° C. as a long-term stability test. […]"}, "[7]": {"molecular_target": "T1, Human IL-33", "assay": "ELISA on plate-coated human IL-33, HRP anti-human IgG detection; 150 mg/mL formulation stored 6 months at 2 to 8 C", "experimental": "as §1, with “monoclonal” for “Compositions of 10 mg/mL of each human anti-IL-33 monoclonal”, “and stored for 1, 2 and 3 years at a temperature of 2 to” left out\nas §2"}},
  "data": [
    {"binder": "B1", "values": [
      {"measurement": "Binding activity (ratio of EC50 to that of the standard solution)", "setting": "[1]", "value": 100, "unit": "%"},
      {"measurement": "Binding activity (ratio of EC50 to that of the standard solution)", "setting": "[2]", "value": 115, "unit": "%"},
      {"measurement": "Binding activity (ratio of EC50 to that of the standard solution)", "setting": "[3]", "value": 110, "unit": "%"},
      {"measurement": "Binding activity (ratio of EC50 to that of the standard solution)", "setting": "[4]", "value": 101, "unit": "%"},
      {"measurement": "Binding activity (ratio of EC50 to that of the standard solution)", "setting": "[5]", "value": 101, "unit": "%"},
      {"measurement": "Binding activity (ratio of EC50 to that of the standard solution)", "setting": "[6]", "value": 110, "unit": "%"},
      {"measurement": "Binding activity (ratio of EC50 to that of the standard solution)", "setting": "[7]", "value": 100, "unit": "%"}
    ]}
  ]
}
